Test results taken from patent US20260209362A1 (VIB VZW, published 2026).
Substitutions are numbered along the chain they refer to.

T1: mouse IL-12Rβ2 expressed on cells (mouse, UniProt P97378 24-874)
T1 construct: HEK293T cells, stably transduced (cDNA NM_008354); also called mIL-12RB2
T1 sequence: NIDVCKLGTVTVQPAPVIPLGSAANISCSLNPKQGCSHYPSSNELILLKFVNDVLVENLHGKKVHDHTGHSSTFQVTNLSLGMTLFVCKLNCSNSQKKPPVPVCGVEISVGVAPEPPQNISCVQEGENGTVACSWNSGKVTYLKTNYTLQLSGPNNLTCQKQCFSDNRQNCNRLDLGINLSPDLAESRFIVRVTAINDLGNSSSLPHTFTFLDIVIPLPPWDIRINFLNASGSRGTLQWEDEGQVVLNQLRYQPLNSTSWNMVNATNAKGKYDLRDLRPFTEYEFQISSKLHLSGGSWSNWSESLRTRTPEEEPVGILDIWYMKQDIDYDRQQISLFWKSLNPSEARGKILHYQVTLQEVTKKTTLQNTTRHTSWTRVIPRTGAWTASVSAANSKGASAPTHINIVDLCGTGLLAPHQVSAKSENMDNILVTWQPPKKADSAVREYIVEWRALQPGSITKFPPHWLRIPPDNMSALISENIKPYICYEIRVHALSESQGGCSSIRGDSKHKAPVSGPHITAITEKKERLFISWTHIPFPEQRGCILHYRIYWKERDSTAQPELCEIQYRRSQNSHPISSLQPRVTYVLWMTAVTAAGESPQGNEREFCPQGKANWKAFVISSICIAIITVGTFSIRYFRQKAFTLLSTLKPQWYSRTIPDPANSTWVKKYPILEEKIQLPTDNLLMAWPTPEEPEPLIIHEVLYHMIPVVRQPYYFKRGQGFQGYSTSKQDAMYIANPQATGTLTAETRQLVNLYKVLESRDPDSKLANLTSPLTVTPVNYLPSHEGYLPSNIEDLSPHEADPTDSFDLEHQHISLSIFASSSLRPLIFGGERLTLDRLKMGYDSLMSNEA

T2: biotinylated recombinant mouse IL-12Rβ2 (produced in-house) (mouse, UniProt P97378 24-637, random biotinylated)
T2 construct: also called mIL-12RB2; mIL12RB2
T2 sequence: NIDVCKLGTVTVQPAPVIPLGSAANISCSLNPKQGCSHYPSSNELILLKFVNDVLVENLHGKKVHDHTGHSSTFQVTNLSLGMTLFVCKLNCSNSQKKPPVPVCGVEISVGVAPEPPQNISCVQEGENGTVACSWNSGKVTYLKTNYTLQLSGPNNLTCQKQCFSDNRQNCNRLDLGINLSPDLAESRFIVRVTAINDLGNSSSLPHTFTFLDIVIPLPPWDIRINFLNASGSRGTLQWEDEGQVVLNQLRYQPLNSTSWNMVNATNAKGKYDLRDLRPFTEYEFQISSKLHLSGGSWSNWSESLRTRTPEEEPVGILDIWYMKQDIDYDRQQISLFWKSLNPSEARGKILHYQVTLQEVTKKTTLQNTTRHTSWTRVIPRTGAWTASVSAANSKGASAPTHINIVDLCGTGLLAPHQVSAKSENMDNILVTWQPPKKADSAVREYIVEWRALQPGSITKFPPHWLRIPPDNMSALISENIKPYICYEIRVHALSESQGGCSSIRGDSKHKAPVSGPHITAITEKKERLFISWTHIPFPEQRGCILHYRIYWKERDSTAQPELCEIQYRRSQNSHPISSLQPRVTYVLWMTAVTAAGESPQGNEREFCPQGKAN

T3: biotinylated recombinant human IL-12Rβ2 (human, UniProt Q99665 24-622, random biotinylated)
T3 construct: Recombinant protein produced in-house; also called hIL-12RB2; human IL-12RB2
T3 sequence: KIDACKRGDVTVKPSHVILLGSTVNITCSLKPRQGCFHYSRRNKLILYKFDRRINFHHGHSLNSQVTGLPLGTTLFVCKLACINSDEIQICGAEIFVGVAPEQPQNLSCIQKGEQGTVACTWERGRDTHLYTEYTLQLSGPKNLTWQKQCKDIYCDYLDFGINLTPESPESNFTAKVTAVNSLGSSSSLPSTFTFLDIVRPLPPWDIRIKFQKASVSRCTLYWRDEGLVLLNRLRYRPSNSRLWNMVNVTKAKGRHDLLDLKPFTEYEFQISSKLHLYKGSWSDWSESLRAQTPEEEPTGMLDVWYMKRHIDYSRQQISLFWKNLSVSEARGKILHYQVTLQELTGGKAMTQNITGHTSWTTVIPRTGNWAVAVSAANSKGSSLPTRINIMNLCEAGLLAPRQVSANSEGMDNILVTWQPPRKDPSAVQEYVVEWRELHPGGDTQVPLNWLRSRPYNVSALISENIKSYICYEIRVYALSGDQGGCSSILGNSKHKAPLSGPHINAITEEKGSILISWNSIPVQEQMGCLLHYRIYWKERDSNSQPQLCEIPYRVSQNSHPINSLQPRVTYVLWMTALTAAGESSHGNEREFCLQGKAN

T4: biotinylated recombinant human IL-12Rβ2 (produced in-house) (human, UniProt Q99665 24-622, random biotinylated)
T4 construct: also called hIL-12RB2; hIL12RB2
T4 sequence: T3 sequence

T5: biotinylated recombinant mouse IL-12Rβ2 (mouse, UniProt P97378 24-637, random biotinylated)
T5 construct: Recombinant protein produced in-house, biotinylated; also called mIL-12RB2; mouse IL-12RB2
T5 sequence: T2 sequence

B1: anti-IL-12Rβ2 VHH clone 2CAMS52 (VHH, not shown: small tags and cut ends)
VHH: QVQLQESGGGLVQPGASLRLSCATSGPTLSTYAMGWFRQAPGKEREVVATISWSGGRVTYVDSVKGRFTISRDNAKNTAYLQMNRLRPDDTAVYTCAARESDYGAYDYWGQGTQVTVSS
notes: tested as periplasmic extract; also called 20535; 2CAMSSZ
B2: anti-IL-12Rβ2 VHH clone 3CAM1 (VHH, not shown: small tags and cut ends)
VHH: QVQLQESGGGLVQAGGSLRLSCAASGRTFGSHRMGWFRQAPGQEREFVAAIAWRGGTQYYTDSVKGRFTISRDNANNTVYLQMNSLKPEDAAVYYCVAGEGSSWGDITDPRRYVFWGQGTQVTVSS
notes: tested as periplasmic extract
B3: anti-IL-12Rβ2 VHH clone 3CAM57 (VHH, not shown: small tags and cut ends)
VHH: QVQLQESGGGLVQAGGSLRLSCTPSGRTFSTLAMGWFRQAPGKEREVVATISWSGGRTYYASSVKSRFTISRDNAKNTAYLQMNSLRPDDTAVYYCAARGTDYGAYDYWGQGTQVTVSS
notes: tested as periplasmic extract; also called 20512; 3CAMS7
B4: anti-IL-12Rβ2 VHH clone 3CAM65 (VHH, not shown: small tags and cut ends)
VHH: QVQLQESGGGLVQAGGSLRLSCAPSGRTFTTYVMGWFRQAPGKEREFVAHISWSGGRTYYADSVKGRFTISRDNAKNTSYLQMNSLKPEDTAVYYCAAARSDAVRIGYAEGYEYWGQGTQVTVSS
notes: tested as periplasmic extract; also called 20513
B5: anti-IL-12Rβ2 VHH clone 20450 (VHH, not shown: small tags and cut ends)
VHH: QVQLQESGGGLVQPGGSLRLSCAASGFTISNYAMSWVRQAPGKGLEWVSSIGSNIASTNYADSVKGRFTISRDNAKNTLYLQMNSLKPEDTAVYYCAKASQNHSPPGQGTQVTVSS
notes: tested as periplasmic extract; also called 2CRM61
B6: anti-IL-12Rβ2 VHH clone 20460 (VHH, not shown: small tags and cut ends)
VHH: B5 VHH with P14A, I29L, S30G, N31S, G52S, N54S, I55G, A56T, S57N, Q111P
notes: tested as periplasmic extract; also called 3CRM63
B7: anti-IL-12Rβ2 VHH clone 3CRH17 (clone ID 20376) (VHH, not shown: small tags and cut ends)
VHH: QVQLQESGGGLVQAGGSLVLSCAASGSAALIFLMSWYRQAPGKQRELVAEVSRYGSTTYADSVEGRFTISRDNAKNIVDLQMNSLKPEDTAVYYCKADQYYGDSLRSSWGRGTQVTVSS
notes: periplasmic extract
B8: anti-IL-12Rβ2 VHH clone 3CRH67 (clone ID 20387) (VHH, not shown: small tags and cut ends)
VHH: B7 VHH with V92A
notes: periplasmic extract

molecular target: T1, mouse IL-12Rβ2 expressed on cells; test: flow cytometry, P.E. VHH on HEK293T cells stably expressing mIL-12RB2

% cells bound [%] | dMFI | Binder
60.9 | 342 | B1
63 | 376 | B2
62.2 | 351 | B3
57.9 | 315 | B4

molecular target: T1, mouse IL-12Rβ2 expressed on cells; test: flow cytometry, P.E. VHH on HEK293T cells expressing mIL-12RB2

% cells bound [%] | dMFI | Binder
60.9 | 342 | B1
63 | 376 | B2
62.2 | 351 | B3
57.9 | 315 | B4

molecular target: biotinylated recombinant human IL-12Rβ2 (human) (UniProt Q99665); test: ELISA, periplasmic extract on biotinylated hIL-12Rβ2, signal over control wells

ELISA binding hIL-12RB2/control | Binder
2.18 | B5
2.43 | B6

molecular target: T2, biotinylated recombinant mouse IL-12Rβ2 …; test: ELISA, P.E. VHH on biotinylated mIL-12RB2, signal ratio to control well

ELISA mIL12RB2/control | Binder
5.41 | B1
3.3 | B2
47.4 | B3
5.98 | B4

molecular target: biotinylated recombinant mouse IL-12Rβ2 (mouse) (UniProt P97378); test: ELISA, P.E., biotinylated antigen

ELISA mIL-12RB2/control | Binder
2.85 | B7
2.11 | B8

molecular target: T3, biotinylated recombinant human IL-12Rβ2; test: BLI, P.E., off-rate ranking

Response | koff [s⁻¹] | Binder
0.53 | 0.00446 | B7
0.617 | 0.00495 | B8

molecular target: T3, biotinylated recombinant human IL-12Rβ2; test: ELISA, P.E., biotinylated antigen

ELISA hIL-12RB2/control | Binder
9.8 | B7
10 | B8

molecular target: T4, biotinylated recombinant human IL-12Rβ2 …; test: ELISA, P.E. VHH on biotinylated hIL-12RB2

binding result | Binder
no binding | B1
no binding | B2
no binding | B3
no binding | B4

molecular target: T4, biotinylated recombinant human IL-12Rβ2 …; test: ELISA, P.E. VHH on biotinylated hIL-12RB2, signal ratio to control well

ELISA hIL12RB2/control | Binder
0.97 | B1
1.2 | B2
1.31 | B3
1.25 | B4

molecular target: T5, biotinylated recombinant mouse IL-12Rβ2; test: ELISA, periplasmic extract on biotinylated mIL-12Rβ2, signal over control wells

ELISA binding mIL-12RB2/control [ratio] | Binder
18 | B5
16.6 | B6
